For test [1], the target named is human-CD45RO-ECD-His (human) (UniProt P08575). The test is described as follows: SPR, captured human-CD45RO-ECD-His, 1:1 binding; row label printed 'Clone 023' a second time, taken as clone 028 by the order in paragraph 382.
For test [2] the target is unchanged. The test is described as follows: ELISA, human-CD45RO-ECD-His-coated plates.
Test [3] shares this target. Nature of the test: SPR, captured human-CD45RO-ECD-His, 1:1 binding. A general note: In SPR one partner is held on a chip, and binding of the other changes the refractive index at the surface.

B1: anti-CD45 antibody clone 028 (antibody, V domains shown)
VH: QVQLQQSGAELARPGASVKMSCKASGYTFTFYAILWVKQMPGQGLEWIGFINPSSGYTSYNQKFKDKATLTADKSSSTAYMQLSSLTSEDSAVYYCARDYGLDYWGQGTTLAVSS
VL: DIVMTQAAPSVPVTPGESVSISCRSSKSLLHSNGNTYLYWFLQRPGQSPQLLIYRMSNLASGVPDRFSGSGSGTAFTLGISRVEAGDVGVYYCMQHLEYPFTFGSGTKLEIK
Broadly, the Kd is the constant that tells how readily two partners part at equilibrium. A higher Kd goes with weaker binding. For orientation: koff means the rate constant with which the complex falls apart. In general, kon refers to a measure of how fast the partners come together. Usually EC50 stands for the concentration needed to bring the measured effect to its halfway point. Low readings indicate a more potent agent, high ones a less potent agent. With B1, in test [1], the dissociation constant Kd worked out at 39.9 nM, the dissociation rate constant (koff) came out at 0.000591 s⁻¹ and the kon was determined as 14800 M⁻¹ s⁻¹. In test [2], this molecule registered an EC50 of 0.0319 nM.

B2: anti-CD45 antibody clone 027 (antibody, V domains shown)
VH: QVQLQQSAPELARPGASVRMSCKASGYTFTTYTMNWLTQRPGQGLEWIGYINPSSGYTEYNQKFKDKTSLTADTSSSTAYMQLSSLTSEHSAVYYCARASGYSSWFAYWGQGTLVTVSA
VL: NIVMTQTPKFLLVSAGDRVTITCKASQSVNNDVGWYQQKPGQSPKLLIYYASNRYTGVPDRFTGSGYGTDFTFTISTVQAEDLAVYFCQQDYNSPLTFGAGTKLELK
Turning to B2, in test [3], the dissociation constant (Kd) amounted to 3.72 nM, the koff was found to be 0.000282 s⁻¹ and the kon was determined as 75800 M⁻¹ s⁻¹. In test [2], this molecule showed an EC50 of 0.0734 nM.

B3: anti-CD45 antibody clone 031 (antibody, V domains shown)
VH: DVQLVESGGGLVQPGGSRKLSCAASGFTFSSFGMHWVRQAPEKGLEWVAYINSGSTTFYYADTVKGRFTISRDNPKNTLFLQMTSLGSEDTAMYYCARSATATWTMDYWGQGTSVTVSS
VL: NIMMTQSPSSLAVSAGEKVTMSCKSSQSVFVSSNQKNYLAWYQQKPGQSPKLLIYWASTRESAVPDRFTGSGSGTDFTLTIGSVQAEDLAVYYCHQYLSSWTFGGGTKLEIK
In test [3], B3 showed a Kd of 79.5 nM, a dissociation rate constant (koff) of 0.000335 s⁻¹ and an on-rate constant (kon) of 4220 M⁻¹ s⁻¹. Also, the 50% effective concentration (EC50) in test [2] is 0.139 nM.

B4: anti-CD45 antibody clone 042 (antibody, V domains shown)
VH: EVQLQQSGAELVKPGASVKLSCTASGFNIKDTFMHWVKLRPEQGLEWIGRIDPANGYTKYDPRFQGKATIIADTSSNTAYLQLSSLTSEDTAVYYCASGEYYALDYWGQGTSVTVSS
VL: DIVLTQSPASLTVSLGQRATISCRASKSVSTSGYSYMHWYQQKPGQPPKLLIYLASNLESGVPARFSGSGSGTDFTLNIHPVEEEDAATYYCQHNRELPYTFGGGTKLEIK
In test [2], B4 registered an EC50 of 0.144 nM.
